The values that follow come from publication PMC11767649.

Experiment [1] addresses T1, recombinant human RKIP (rhRKIP) wild type, histidine-tagged (human), P30086. Briefly: LC Q-TOF mass spectrometry; purified rhRKIP WT and mutant proteins in buffer at pH 7.4; peaks around 22 kDa (monomer) and 44 kDa (dimer). The note with it: remark: other sources report otherwise.
Experiment [2] has as its target T1, recombinant human RKIP (rhRKIP) wild …. Briefly: non-reducing SDS-PAGE; purified rhRKIP in sample loading buffer without β-mercaptoethanol or boiling; Coomassie Brilliant Blue staining or anti-His immunoblot. The note with it: remark: other sources report otherwise. On the technique in general: In western blotting, separated proteins are transferred to a membrane and probed.

B1: recombinant human RKIP (rhRKIP) wild type, histidine-tagged, P30086 1-187 (natural protein)
chain: MPVDLSKWSGPLSLQEVDEQPQHPLHVTYAGAAVDELGKVLTPTQVKNRPTSISWDGLDSGKLYTLVLTDPDAPSRKDPKYREWHHFLVVNMKGNDISSGTVLSDYVGSGPPKGTGLHRYVWLVYEQDRPLKCDEPILSNRSGDHRGKFKVASFRKKYELRAPVAGTCYQAEWDDYVPKLYEQLSGK
With B1, the stoichiometry N in experiment [1] and in experiment [2] was 2 throughout.
